Here are results for four substances from patent US20240294963.

Data set [1] has as its system T1, peptide with the sequence TNYS found in IFNγ.
T1 sequence: TNYS

The target of a further data set is Interferon-gamma (IFNγ) (UniProt P01579).
Data set [2] deals with constant region (Fc) of a human immunoglobulin antibody (IgG1) [IgG part: P01857].
Data set [3] has as its system T2, peptide with the YNST sequence from Fc.
T2 sequence: YNST

The subject of data set [4] is T3, peptide with the LNLS sequence from GM-CSF.
T3 sequence: LNLS

For data set [5], the target named is Granulocyte-Macrophage Colony-Stimulating Factor (GM-CSF) (UniProt P04141).
Chain of Granulocyte-Macrophage Colony-Stimulating Factor (GM-CSF) (P04141 18-144): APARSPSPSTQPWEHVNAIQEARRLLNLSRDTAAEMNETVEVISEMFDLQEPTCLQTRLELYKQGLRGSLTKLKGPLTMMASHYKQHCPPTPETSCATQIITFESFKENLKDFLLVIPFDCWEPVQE

Chain of Interferon-gamma (IFNγ) (P01579 24-166): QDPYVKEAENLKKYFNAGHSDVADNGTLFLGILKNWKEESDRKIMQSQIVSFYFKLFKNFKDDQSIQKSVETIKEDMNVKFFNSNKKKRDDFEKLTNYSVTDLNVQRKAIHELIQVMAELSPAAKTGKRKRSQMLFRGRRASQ

Consider ApQ mutant A469I, for which the “peptide modification (glycosylation), SAMDI-MS” value (from here on “peptide modification”) in data set [1] is recorded as “the purified A469I mutant glycosylated the sequence TNYS found in IFNγ more efficiently than did ApQ”. Also, the “protein modification (glycosylation), LC-qTOF of tryptic peptides” value (“protein modification (glycosylation)” for short) in the data set with Interferon-gamma (IFNγ) was “increase the modification of the therapeutic proteins IFNγ GM-CSF, and Fc using the A469I, T438S, and H495D mutants of ApQ, respectively”.
On to ApQ mutant H495D, for which, in data set [2], the “modification of Fc relative to ApQ, 2 µM H495D added before CFPS” value is listed as “significantly increased the modification of Fc to 60% or by 1.3-fold”; the “modification of Fc, 2 µM H495D added before CFPS” value is on record as “significantly increased the modification of Fc to 60% or by 1.3-fold”; the “modification of Fc, 5 µM H495D during CFPS” value was 80% modification of Fc could be achieved. In data set [3], the “peptide modification” value was “H495D glycosylated the YNST sequence from Fc more efficiently than did ApQ”.
For the substance ApQ mutant T438S, the “peptide modification” value in data set [4] is “T438S glycosylated the LNLS sequence from GM-CSF more efficiently than did ApQ”. In data set [5], the “protein modification (glycosylation)” value was “increase the modification of the therapeutic proteins IFNγ GM-CSF, and Fc using the A469I, T438S, and H495D mutants of ApQ, respectively”.
For “Q469A mutant of Actinobacillus pleuropneumoniae N-glycosyltransferase (ApNGT)”, in data set [2], the “glycosylation efficiency of Fc, 2 µM ApQ added after CFPS” value is “the glycosylation efficiency of Fc was increased from 15% to 46%” and the “glycosylation efficiency of Fc, 2 µM ApQ added before CFPS” value is given as “the glycosylation efficiency of Fc was increased from 15% to 46%”. In the data set with Interferon-gamma (IFNγ), the “protein modification (glycosylation)” value was “ApQ showed no detectable modification of IFNγ (marked as "ND")”.
